Test results from paper PMC11979002.

Target: HLA-DQ2.2 (DQA1*02:01/DQB1*02:02) with the covalently linked glutL1 peptide
Assay: SPR; Biacore T200; biotinylated HLA-DQ2 molecules immobilised on a streptavidin chip (about 3000 RU), biotinylated HLA-DQ8glia-α1 in the reference cell; serial dilutions of TCR flowed at 10 μl/min in 20 mM HEPES pH 7.5, 150 mM NaCl, 1 mM EDTA, 0.005% TWEEN 20; steady-state KD, 1:1 (single ligand) binding model

Kd [µM] | Substance
7.8 | G9 TCR, β-chain S58A
10.2 | G9 TCR, β-chain R75A
